In article PMC9873690, “Structural insights into the elevator-type transport mechanism of a bacterial ZIP metal transporter” (Nature Communications, 2023):

Target: the molecule itself
Assay: cross-linking; disulfide cross-linking of variants purified in DDM with 50 µM Cu(II)-(1,10-phenanthroline)3 at 25 °C; non-reducing SDS-PAGE and Western blot with anti-Histag antibody

B1: BbZIP L138C/M295C variant (natural protein)
chain: MNQPSSLAADLRGAWHAQAQSHPLITLGLAASAAGVVLLLVAGIVNALTGENRVHVGYAVLGGAAGFAATALGALMALGLRAISARTQDAMLGFAAGMMLAASAFSLILPGLDAAGTIVGPGPAAAAVVALGLGLGVCLMLGLDYFTPHEHERTGHQGPEAARVNRVWLFVLTIILHNLPEGMAIGVSFATGDLRIGLPLTSAIAIQDVPEGLAVALALRAVGLPIGRAVLVAVASGLMEPLGALVGVGISSGFALAYPISMGLAAGAMIFVVSHEVIPETHRNGHETTATVGLCAGFALMMFLDTALG
notes: Purified protein was detected with the anti-Histag antibody; in the membrane fraction it was detected with a custom monoclonal antibody against BbZIP; source: E. coli C41 (DE3) pLysS, purified in DDM (1 mM TCEP except in the last size-exclusion step); also in the spheroplast-derived membrane fraction of E. coli cells; not shown: His-tag, N-terminal, kept
stoichiometry N: 2
